# In IntAct's records for PubMed 18796637:
# B1: B-box zinc finger protein 22 (Arabidopsis thaliana (Mouse-ear cress)), Q9SYM2 (parent)
# chain: MKIQCNVCEAAEATVLCCADEAALCWACDEKIHAANKLAGKHQRVPLSASASSIPKCDICQEASGFFFCLQDRALLCRKCDVAIHTVNPHVSAHQRFLLTGIKVGLESIDTGPSTKSSPTNDDKTMETKPFVQSIPEPQKMAFDHHHHQQQQEQQEGVIPGTKVNDQTSTKLPLVSSGSTTGSIPQWQIEEIFGLTDFDQSYEYMENNGSSKADTSRRGDSDSSSMMRSAEEDGEDNNNCLGGETSWAVPQIQSPPTASGLNWPKHFHHHSVFVPDITSSTPYTGSSPNQRVGKRRRRF
# partner: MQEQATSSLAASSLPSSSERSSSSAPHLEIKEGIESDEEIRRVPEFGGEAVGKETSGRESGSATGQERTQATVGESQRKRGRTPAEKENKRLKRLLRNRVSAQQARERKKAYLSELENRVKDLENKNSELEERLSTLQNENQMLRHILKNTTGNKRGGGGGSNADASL
# Variants of: B1
# Settings: with hy5_arath HY5, O24646
row,effect of a mutation on the interaction,Variant
1,disrupting interaction,MKIQCNVCEAAEATVLCCADEAALCWACDEKIHAANKLAGKHQRVPLSASASSIPKCDICQEASGFFFCLQARALLCRKCDVAIHTVNPHVSAHQRFLLTGIKVGLESIDTGPSTKSSPTNDDKTMETKPFVQSIPEPQKMAFDHHHHQQQQEQQEGVIPGTKVNDQTSTKLPLVSSGSTTGSIPQWQIEEIFGLTDFDQSYEYMENNGSSKADTSRRGDSDSSSMMRSAEEDGEDNNNCLGGETSWAVPQIQSPPTASGLNWPKHFHHHSVFVPDITSSTPYTGSSPNQRVGKRRRRF [D72A]
2,disrupting interaction,MKIQCNVCEAAEATVLCCADEAALCWACDEKIHAANKLAGKHQRVPLSASASSIPKCDICQEASGFFFCLQDRALLCRKCAVAIHTVNPHVSAHQRFLLTGIKVGLESIDTGPSTKSSPTNDDKTMETKPFVQSIPEPQKMAFDHHHHQQQQEQQEGVIPGTKVNDQTSTKLPLVSSGSTTGSIPQWQIEEIFGLTDFDQSYEYMENNGSSKADTSRRGDSDSSSMMRSAEEDGEDNNNCLGGETSWAVPQIQSPPTASGLNWPKHFHHHSVFVPDITSSTPYTGSSPNQRVGKRRRRF [D81A]
